Experimental findings from patent US20140378382A1 are described below.

The target in experiment [1] is parathyroid hormone receptor-2 (PTHR-2). In words: cell-based or functional assay.
Experiment [2] concerns the target PTHR-1 (species and cells not stated for the assay) (Homo sapiens (Human)) (UniProt Q03431). The experiment can be described thus: cell-based or functional assay.

PTHR-1 (species and cells not stated for the assay) (Homo sapiens (Human)), sequence (Q03431 27-593 limits assumed, form in doubt): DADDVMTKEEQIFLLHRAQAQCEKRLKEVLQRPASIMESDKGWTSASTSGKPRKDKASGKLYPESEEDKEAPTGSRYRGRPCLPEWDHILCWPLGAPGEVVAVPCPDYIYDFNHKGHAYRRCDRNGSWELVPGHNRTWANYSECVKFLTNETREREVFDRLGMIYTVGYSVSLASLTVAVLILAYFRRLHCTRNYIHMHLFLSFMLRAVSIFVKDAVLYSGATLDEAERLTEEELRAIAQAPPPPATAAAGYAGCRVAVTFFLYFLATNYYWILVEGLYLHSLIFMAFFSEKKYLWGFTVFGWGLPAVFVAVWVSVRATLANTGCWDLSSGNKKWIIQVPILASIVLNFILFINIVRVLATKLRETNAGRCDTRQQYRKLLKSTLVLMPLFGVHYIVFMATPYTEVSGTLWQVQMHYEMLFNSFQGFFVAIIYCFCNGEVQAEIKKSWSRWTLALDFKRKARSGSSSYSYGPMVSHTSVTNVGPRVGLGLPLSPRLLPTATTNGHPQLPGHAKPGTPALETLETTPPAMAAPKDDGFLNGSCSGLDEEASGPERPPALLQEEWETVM

“hPTHrP(1-36) (from UniProt P12272 37-72) (peptide)” displayed a cAMP response PTH2R/PTH1R in experiment [1] of 0.04. In experiment [2], this substance showed a cAMP response PTH1R/PTH2R of 27.

“hTIP(1-39) (from UniProt Q96A98 62-100) (peptide)” registered a cAMP response PTH2R/PTH1R in experiment [1] of 165. The substance also gave a cAMP response PTH1R/PTH2R in experiment [2] of 0.01.
